Patent publication US20160340659A1, “ACTIN BINDING PEPTIDES AND COMPOSITIONS COMPRISING SAME FOR INHIBITING ANGIOGENESIS AND TREATING MEDICAL CONDITIONS ASSOCIATED WITH SAME” (YISSUM RESEARCH AND DEVELOPMENT COMPANY OF THE HEBREW …, priority 2014, published 2016)
One block for each substance: values may come before it.

Columns and labels:
[1] = biological target: T1, Rabbit muscle actin (Oryctolagus cuniculus, UniProt P68135); test: Peptide array screen for actin binding; conditions: peptides on cellulose membrane; 5 μM actin; densitometry relative to K108-K133
T1 construct: Rabbit muscle actin (A2522, Sigma-Aldrich, St Louis, Mo.); purchased Sigma-Aldrich, St Louis, Mo; A2522; host or cells: rabbit muscle (tissue-derived)
Protocol: The peptides were acetylated at their N-termini and attached to a cellulose membrane via their C-termini through an amide bond. Peptide array (INTAVIS Bioanalytical Instruments AG, Koeln, Germany).
The array was immersed in 5 ml blocking solution (TBST containing 2.5% milk) for 4 hours with shaking, then washed once with blocking solution (30 sec.) and twice with TBST (5 min. each). 5 μM actin were dissolved in the blocking solution (˜1:3), and incubated with the array at 4° C. with shaking overnight. After washing with TBST (1×30 sec. and 2×5 min.) the array was incubated first with rabbit anti actin antibody diluted 1:100 in blocking solution for 4 hours at room temperature followed by washings three times with TBST (1×30 sec. and 2×5 min.). The array was then incubated with horseradish peroxidase-conjugated goat anti rabbit IgG antibody diluted 1:10,000 in blocking solution at room temperature for 2 hours followed by washing with TBST (1×30 sec. and 2×5 min.). Immunodetection was performed using chemiluminiscence with ECL reagents.
The modifications included an alanine scan, truncations and systematic replacements of each residue in each peptide by the corresponding D-amino acid residue and N-methylated residue, C terminal truncations and N terminal truncations. The array was screened for binding the actin protein.

[2] = biological target: actin (Oryctolagus cuniculus, UniProt P68135); test: Surface plasmon resonance (BIAcore) of actin binding; conditions: actin on CM5 chip, 25° C.
Protocol: SPR was performed on a BIAcore 3000 instrument (BIAcore, Uppsala, Sweden). Actin was diluted in 100 mM CH3COONa pH 4.6 to a final concentration of 20 μg/ml (200 μl total) resulting in ˜1 ng immobilized actin on a CM5 BIAcore sensor chip (GE Healthcare Bio-Sciences AB) using the standard BIAcore amine coupling chemistry protocol. The CM5 chip allows four separate flow cells to be operated in the BIAcore 3000 instrument used in these experiments. Coupling is achieved by activating the surface of the sensor chips with equal volumes of 50 mM N-hydroxysuccimide (NHS)/200 mM Nethyl-N-(3-[…])-carboiimide (EDC) (BIAcore, AB, Uppsala, Sweden) to form activated carboxyl groups. An actin solution […] was run over the chip for 5 min at a rate of 10 μl/min, allowing the amine groups on the protein to react with the activated esters. In the final stage of immobilization, the surface was blocked by 1M ethanol amine, pH 8.0. The binding assay was performed by injecting the hRNASET2, trT2-49, trT2-49m or peptides solutions in running buffer (HBS—10 mM Hepes, 150 mM Sodium Chloride, 3 mM EDTA, 0.005% Polysorbate 20) at 5 different concentrations at a flow rate of 10 μl/min at 25° C. Injections were performed simultaneously over all four channels and blank surface (a plain dextran matrix, channel 1) was used as control. The net signal was obtained by subtracting the blank signal from the signal of the immobilized surface. The association phase for protein or peptides binding to actin was followed for 4 min, and dissociation phases were monitored for 3 min. Surface regeneration between consecutive binding cycles included a 1 min injection of 1 mM NaOH. The response was monitored as a function of time (sensorgram) at 25° C. Multi-concentration data were globally fit using BIA evaluation 3.2 software.
The strength of a two molecule interaction is characterized by the equilibrium dissociation (binding) constant KD=[P][L]/[PL], where [P] is the concentration of free protein (or peptide), [L] the concentration of ligand and [PL] the concentration of the complex. […]

[3] = system: chick Chorio-Allantoic Membrane (CAM); test: Ex ovo CAM angiogenesis assay; assay type: in vivo, chicken; conditions: 3 μg on paper disk daily for four days from day 8; compared to PBS control
Protocol: In this assay, in-vivo angiogenesis is assessed on live chick embryos grown in petri dishes. Fertilized eggs are cracked into a petri dish after a few (e.g. 3) days incubation at appropriate temperature (e.g. 37° C.) and humidity. In the following days, the embryos developed a vascular network, which can then easily be exposed to any treatment or combination of treatments, for example, via delivery onto absorbent disks placed on/about the developing vascular regions. Angiogenesis is scored by periodically (e.g. 1×/day, 2×/day, 1×/2 days, 1×/4 days, etc) counting the number of blood vessels around the disk.
Fertilized chicken eggs were incubated horizontally at 37° C. and humidity of 60-62% and cracked into Petri dishes at embryonic day 4. Incubation was continued under the same conditions. […] Treatment was given every day for four days, then, the number of blood vessels around the treated disks was counted.

[4] = biological target: T2, G-Actin from rabbit muscle (Oryctolagus cuniculus, UniProt P68135); test: ELISA actin binding assay (solid-phase, immobilized actin); conditions: immobilized G-actin 500 ng/well
T2 construct: G-Actin from rabbit muscle; purchased Sigma-Aldrich, St Louis, Mo; host or cells: rabbit muscle (tissue-derived)
Protocol: Peptides corresponding to a variety of amino acid sequences in the region of human RNASET2 comprising helix 5 and helix 6 were synthesized and assayed for actin binding in an ELISA actin binding assay.
Solid-phase ELISA for RNASET2 peptide binding to immobilized actin was performed as modified from Mejean 1987 (Biochem. J. 244: 571-577) and Mejean 1992 (Eur. J Biochem. 209: 555-562). All steps were conducted at 37° C. Immuno-96 Microwell™ solid plates (Thermo Fisher Scientific, MA) coated with 500 ng/well of G-Actin from rabbit muscle (Sigma-Aldrich, St Louis, Mo.) in 100 ul of 0.05 M carbonate buffer, pH 9.5 (Sigma-Aldrich, Mo), incubated for 1 h and washed with 250 ul/well Tris Buffered Saline (TBS) (Sigma-Aldrich). The wells were blocked with 3% bovine serum albumin (BSA, Sigma-Aldrich) in 200 ul/well TBS for another 1 hour and washed with 250 ul/well TBS. The candidate peptides are then added at various concentrations (for example, serial dilutions giving 500, 250 or 125 ng/well) in 100 ul/well Tris Buffered Saline (TBS), incubated for 1 hour and washed 3 times with 250 ul/well TBS containing 0.05% Tween®20 (TBST, Sigma-Aldrich). Anti-T2 RNase (rabbit anti-rhtrRNASET2, Anilab, Israel, whole serum or antiserum) was then added, incubated for 1 hour and the plates washed 3 times with 250 ul/well TBST. Labeled second antibody [peroxidase-conjugated affinity pure goat-anti rabbit IgG (Jackson, Pa.)] was added at a dilution of 1:10:000 in 100 ul/well TBS, incubated for 1 hour and the plates washed twice with 250 ul/well TBST. After an additional wash with 250 ul/well TBS, 1-Step Ultra TMB-ELISA (TMB-3,3′,5,5′ Tetramethylbenzidine) (Thermo-Scientific) was added (100 ul/well) and after 15-25 min of incubation, the reaction was read at A650 using Infinite F50-TECAN ELISA READER (TECAN, Austria). Each assay was performed in triplicates.

[5] = system: HUVEC; test: HUVEC tube formation assay on Matrigel; assay type: cell-based, human; conditions: angiogenin or VEGF induced; 2 μM peptide
Protocol: FIGS. 6A-6D illustrate in-vitro inhibition of angiogenesis in the HUVEC model by T2 peptides. HUVEC cells plated on Matrigel™ were exposed to 2 μM of T2 peptides A103-Q159 (SEQ ID NO: 60), K108-K133 (SEQ ID NO: 57) or K108-L123 (SEQ ID NO: 67), in addition to 1 μg/ml of angiogenin or VEGF as the angiogenic agent, as indicated. Control wells received PBS. FIG. 6B-Results were assessed by imaging software, and quantified, and expressed relative to tube formation with angiogenin or VEGF alone (100%) Column 1=angiogenin, column 2=angiogenin+SEQ ID NO: 60, column 3=angiogenin+SEQ ID NO: 57, column 4=angiogenin+[…], Column 5=VEGF, column 6=VEGF+SEQ ID NO: 60, column 7=VEGF+SEQ ID NO: 57, column 8=VEGF+[…]. FIGS. 6C and 6D illustrate the inhibitory effect of truncated human T2 polypeptide trT2-49m (SEQ ID NO: 129) on angiogenin and VEGF induced HUVEC tube formation. Note the significant inhibition of HUVEC tube formation by all of the T2 peptides assayed, and in particular, K108-K133 (SEQ ID NO: 57);
HUVEC (CC-2519)(fresh or commercially provided) are maintained in M199 rrrediurn supplemented with 20% FCS, 1% glutamine, 1% antibiotic-antimycotic solution, ECGF, and heparin, plated in a 96-well plate (14×10^3 cells/well) previously coated with growth factor-depleted Matrigel™ (BD Biosciences), in M199 medium containing 5% FCS and 0.005% ECGF. The wells are supplemented with candidate T2 RNase peptides or PBS, and angiogenic growth factors (1 μg/ml angiogenin, bFGF or VEGF) to a final volume of 120 pl. Plates are incubated (overnight), photographed and the extent of tube formation (angiogenesis) assessed.

- actin binding of immobilized peptides [1]: significant actin binding
Substance: KKYFGRSLEL [SEQ ID NO: 131]

- actin binding of immobilized peptides [1]: significant actin binding
Substance: KKYFGRSLELYR [SEQ ID NO: 62]

- actin binding of immobilized peptides [1]: significant actin binding
Substance: LYREL [SEQ ID NO: 132]

- Ka × 10^3 [2]: 1.44 ×10^3 1/Ms
Substance: SEQ ID NO: 1: mature full length human RNASET2, T2 family ribonuclease
- inhibition of angiogenesis (number of blood vessels around disk) [3]: effective in inhibiting angiogenesis

- actin binding on ELISA [4]: moderate
Substance: SEQ ID NO: 63: peptide representing amino acids 103-141 of RNASET2 (ALNSQKKYFGRSLELYRELDLNSVLLKLGIKPSINYYQV)

Substance: SEQ ID NO: 67: peptide K108-L123 of human RNASET2, 16 aa
- inhibition of HUVEC tube formation [5]: unable to inhibit tube formation
